This note sets out measurements from article PMC5662737, “Structural and mechanistic insights into ATRX-dependent and -independent functions of the histone chaperone DAXX” (Nature Communications, 2017).

In one assay the target is T1, hDAXX 4HB F87A (Homo sapiens).
T1 chain: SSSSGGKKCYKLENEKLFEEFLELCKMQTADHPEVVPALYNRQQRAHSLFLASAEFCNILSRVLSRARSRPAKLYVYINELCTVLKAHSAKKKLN
Nature of the assay: ITC. (ITC needs no label: the signal is the heat of the interaction.)

Assay [1] concerns the target T2, human DAXX four-helix bundle domain (4HB, residues 50–144) (human, UniProt Q9UER7 50-144).
T2 construct: DAXX (death-domain-associated protein), human, N-terminal four-helix bundle, residues 50-144; Expressed and purified 'in a similar way' as the fusion protein (His6-SUMO removed with Ulp1); also called DAXX 4HB; hDAXX 4HB; source: E. coli BL21(DE3)-RIL, purified (Ni-NTA, heparin, Superdex 200); not shown: His6-SUMO, N-terminal, cleaved
T2 sequence (looked up): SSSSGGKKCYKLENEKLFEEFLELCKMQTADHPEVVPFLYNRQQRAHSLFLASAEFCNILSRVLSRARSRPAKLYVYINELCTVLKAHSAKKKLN
The experiment in a line: ITC; 17 injections of 2.2 μl ATRX DBM peptide (1.5 mM) into 200 µl DAXX 4HB or mutants (150 µM); 20 °C; 20 mM Tris pH 7.5, 0.3 M NaCl; single site-binding model. The settings on record: both partners purified.

Assay [2] concerns the target T3, human DAXX 4HB F87L (tumor mutation) (human, UniProt Q9UER7 50-144, F87L).
T3 construct: DAXX, human, four-helix bundle, residues 50-144, with the tumor mutation F87L; also called DAXX F87L; source: E. coli BL21(DE3)-RIL, purified (Ni-NTA, heparin, Superdex 200); not shown: His6-SUMO, N-terminal, cleaved
T3 sequence (looked up): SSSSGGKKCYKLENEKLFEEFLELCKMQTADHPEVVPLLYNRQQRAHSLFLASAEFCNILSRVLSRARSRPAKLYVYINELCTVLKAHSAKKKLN
Described as above. The settings on record: both partners purified.

Assay [3] addresses T4, human DAXX four-helix bundle domain (4HB, residues 50–144) (human, UniProt Q9UER7 50-144).
T4 chain: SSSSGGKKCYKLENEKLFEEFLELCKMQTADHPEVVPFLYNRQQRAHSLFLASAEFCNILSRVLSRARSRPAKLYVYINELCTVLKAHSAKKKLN
The experiment in a line: ITC.

B1: human ATRX DAXX-binding motif (DBM) peptide, wild type (peptide, UniProt P46100 1265-1288, looked up)
peptide: NDPENRIAKKMLLEEIKANLSSDE
notes: The limits 1265–1288 are printed for the DBM of the fusion construct; also called ATRX DBM; hATRX DBM; source: synthetic peptide (Tufts University Peptide Core Facility)
One may read the Kd as a measure of binding affinity in units of concentration. Regarding B1, the Kd came out at 7.5 µM in the assay with hDAXX 4HB F87A, 0.9 µM in assay [1] and 33.8 µM in assay [2].

B2: human ATRX DBM peptide I1280A (peptide, UniProt P46100 1265-1288, looked up)
peptide: NDPENRIAKKMLLEEAKANLSSDE
notes: ATRX, human, DBM, residues 1265-1288, with I1280A; Limits as for m4; also called ATRX I1280A mutant; source: synthetic peptide (Tufts University Peptide Core Facility)
For the molecule B2, in assay [3], the dissociation constant (Kd) was found to be 12.9 µM. Also, the “fold weaker binding than wild-type ATRX DBM” value in assay [1] was about 14 fold.
